Laboratory results reported in the supplement of paper PMC10126150.
± gives the standard deviation of the averaged measurements.

Tested on: ATP
Test: switch fluorescence ratio, 500 uM ATP over buffer (Cy3 cluster intensity, sum of 5 cycles each) (fold (ratio)); higher = stronger signal-on switching upon ATP binding; sequences stand for … in TCGTCGGCAGCGTCAGATGTGTATAAGAGACAGTTTTTTTTTTTTTTTTTTTTTTTTT…TC
Details: aptamer strand: ATP DNA aptamer (quencher-CACCTGGGGGAGTATTGCGGAGGAAGG + anchor), 100 nM annealed; ATP concentration: 500 uM
Procedure, shortened: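 Cy3-labelled switching-strand clusters on a modified Illumina MiSeq flow-cell were annealed to 100 nM quencher-labelled ATP aptamer, imaged in selection buffer, then imaged after 15 min with 500 uM ATP at 22 °C. Five buffer/ATP cycles ran, with NaOH stripping and re-annealing between them. The fluorescence ratio is summed target-cycle over summed buffer-cycle Cy3 intensity per cluster, averaged per switch-domain sequence. Clusters outside 100-1000 RFU were excluded.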
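Further: ATP exposure 15 min at 22 °C before imaging.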

GCCTTATATA
switch fluorescence ratio: 0.9952 ± 0.0063

AGCTTGGGTC
switch fluorescence ratio: 0.994 ± 0.019

TCAACAGTTG
switch fluorescence ratio: 0.998 ± 0.011

TGCTGGCATG
switch fluorescence ratio: 0.967 ± 0.014

TTAGGGGTCC
switch fluorescence ratio: 0.998 ± 0.022

AAATTCACTT
switch fluorescence ratio: 0.997 ± 0.021

TTTAAGGAGG
switch fluorescence ratio: 1.03 ± 0.071

CCTTTTGTAC
switch fluorescence ratio: 1.386 ± 0.011

AAGCGGCTTC
switch fluorescence ratio: 0.988 ± 0.013

CTGAGGCCCG
switch fluorescence ratio: 0.984 ± 0.05

GCAGTTGGGT
switch fluorescence ratio: 0.986 ± 0.028

AGTCAATTAG
switch fluorescence ratio: 1.04 ± 0.012

GTTGGGTAGT
switch fluorescence ratio: 0.9962 ± 0.006

GGCGCTCACA
switch fluorescence ratio: 1.04 ± 0.028

GGGTGCAATT
switch fluorescence ratio: 1.05 ± 0.028

ATCGTATACC
switch fluorescence ratio: 1.01 ± 0.022

CGTCCGGGGT
switch fluorescence ratio: 1.48 ± 0.62

GGGGTGATCA
switch fluorescence ratio: 1.05 ± 0.064

ACTGTTATGT
switch fluorescence ratio: 1.07 ± 0.022

GAGTTTGAAA
switch fluorescence ratio: 0.993 ± 0.041

TTTTGTTGGG
switch fluorescence ratio: 0.991 ± 0.03

TTCTCAGGGG
switch fluorescence ratio: 1.12 ± 0.038

TTGAGGGCTT
switch fluorescence ratio: 0.998 ± 0.025

CAACGGTTTC
switch fluorescence ratio: 1.01 ± 0.019

TTTTGTTTCT
switch fluorescence ratio: 0.992 ± 0.027

CGAGCATGTA
switch fluorescence ratio: 1.168 ± 0.0052

CGAGGTACTG
switch fluorescence ratio: 1.01 ± 0.0034

ATGTGTATTG
switch fluorescence ratio: 0.985 ± 0.025

TATTGATGGT
switch fluorescence ratio: 0.994 ± 0.019

TTTCATGGGG
switch fluorescence ratio: 1.014 ± 0.0049

AGATAGTATT
switch fluorescence ratio: 0.986 ± 0.02

GCAAGAAAAA
switch fluorescence ratio: 1.023 ± 0.0056

AAGATATAT
switch fluorescence ratio: 0.984 ± 0.035

CATGCGCTGG
switch fluorescence ratio: 1.17 ± 0.13

AAAAAAATGC
switch fluorescence ratio: 0.974 ± 0.037

GGATGCGGGA
switch fluorescence ratio: 0.98 ± 0.028

AGCGTTTTTT
switch fluorescence ratio: 0.998 ± 0.026

CAAATGTCGT
switch fluorescence ratio: 1.008 ± 0.008

TAAGCCGCCT
switch fluorescence ratio: 0.998 ± 0.016

TGAGTATTAG
switch fluorescence ratio: 0.999 ± 0.033

CAAGTCTGGG
switch fluorescence ratio: 0.9879 ± 0.0059

TCGTAGGAGC
switch fluorescence ratio: 1.03 ± 0.02

CGGGGGGCTC
switch fluorescence ratio: 0.99 ± 0.01

TAGGGACGCA
switch fluorescence ratio: 1.16 ± 0.018

CATGTGTGGG
switch fluorescence ratio: 1.01 ± 0.029

GATTCTCTAT
switch fluorescence ratio: 1.008 ± 0.0033

TTATGTTTTT
switch fluorescence ratio: 1.01 ± 0.025

GTTAGGTCAG
switch fluorescence ratio: 0.997 ± 0.028

TCCTATGGGG
switch fluorescence ratio: 0.9886 ± 0.0033

TGCAATGGGC
switch fluorescence ratio: 1.21 ± 0.086

CTTGACGGTT
switch fluorescence ratio: 1.01 ± 0.092

CAGTTTTTGG
switch fluorescence ratio: 0.992 ± 0.013

GCTTTGCGCT
switch fluorescence ratio: 0.988 ± 0.015

TTAAACGTGT
switch fluorescence ratio: 1.04 ± 0.03

GGTAATTATT
switch fluorescence ratio: 0.951 ± 0.067

TGTTTTTACC
switch fluorescence ratio: 1.03 ± 0.059

TCCGAGATCT
switch fluorescence ratio: 1.08 ± 0.053

GACCAAAGGG
switch fluorescence ratio: 1.03 ± 0.058

TTATTTGTGG
switch fluorescence ratio: 0.97 ± 0.02

TACGAAGTAG
switch fluorescence ratio: 0.993 ± 0.042

AGAGTCGTCA
switch fluorescence ratio: 0.965 ± 0.0068

GGGTTTCAGA
switch fluorescence ratio: 1.01 ± 0.028

GAAGTTCGGC
switch fluorescence ratio: 1.006 ± 0.0056

TTTGGGGGGG
switch fluorescence ratio: 1 ± 0.051

GTTATATGTG
switch fluorescence ratio: 0.982 ± 0.055

ATGAAAGGGA
switch fluorescence ratio: 1.02 ± 0.042

GGGATTTGG
switch fluorescence ratio: 0.985 ± 0.015

GCTTTGGGGA
switch fluorescence ratio: 1 ± 0.025

CGGGGGAATG
switch fluorescence ratio: 0.967 ± 0.027

TGGGTGGGCC
switch fluorescence ratio: 0.981 ± 0.023

GTTGATAGCG
switch fluorescence ratio: 0.991 ± 0.025

TGCTGTTTAC
switch fluorescence ratio: 1.2 ± 0.28

GTACTTCATA
switch fluorescence ratio: 1.03 ± 0.013

TTTTTAAGGC
switch fluorescence ratio: 1.02 ± 0.032

ACAGGGGGTG
switch fluorescence ratio: 1.07 ± 0.035

GCGAAAGGT
switch fluorescence ratio: 0.9846 ± 0.0017

ACGGGCCTTC
switch fluorescence ratio: 1.03 ± 0.012

CGTTTTGGGA
switch fluorescence ratio: 0.98 ± 0.013

TACAGTCAAC
switch fluorescence ratio: 1.06 ± 0.041

GAATTCAGTG
switch fluorescence ratio: 0.9953 ± 0.0096

TGAGATAACA
switch fluorescence ratio: 0.9943 ± 0.0033

GATTATTTGA
switch fluorescence ratio: 0.992 ± 0.061

GTGGGGGACA
switch fluorescence ratio: 0.993 ± 0.04

CATATCATAC
switch fluorescence ratio: 1.079 ± 0.0078

TTATGGTGCA
switch fluorescence ratio: 0.99 ± 0.023

ACTAAAGTGC
switch fluorescence ratio: 1.01 ± 0.03

TTGGTTTTAT
switch fluorescence ratio: 1.02 ± 0.014

AGGGAGATTT
switch fluorescence ratio: 0.99 ± 0.03

CTAGGTAGGG
switch fluorescence ratio: 0.997 ± 0.035

TGGGCG
switch fluorescence ratio: 0.994 ± 0.018

AACTACCAGA
switch fluorescence ratio: 1.062 ± 0.0045

ACCATCAAGG
switch fluorescence ratio: 0.9815 ± 0.0016

TAATTGAGGC
switch fluorescence ratio: 1.04 ± 0.017

ACTGAGGGCG
switch fluorescence ratio: 1.02 ± 0.025

TACAGTAGGA
switch fluorescence ratio: 1.06 ± 0.064

GTCGGCAGGG
switch fluorescence ratio: 1.06 ± 0.014

CAGGTGGTTG
switch fluorescence ratio: 1.01 ± 0.035

TTTATCTGCT
switch fluorescence ratio: 0.981 ± 0.037

ACTAATATTG
switch fluorescence ratio: 1.032 ± 0.0054

ACCAAGTTCA
switch fluorescence ratio: 1.02 ± 0.014

CTCAGAGAAG
switch fluorescence ratio: 1.02 ± 0.058

CTCGTTTTTG
switch fluorescence ratio: 0.972 ± 0.012

GGTGCCGTTT
switch fluorescence ratio: 0.998 ± 0.026

ATGATGCGTG
switch fluorescence ratio: 0.981 ± 0.015

CCAGAAGTGA
switch fluorescence ratio: 1.08 ± 0.018

TGCTATATGG
switch fluorescence ratio: 0.994 ± 0.022

AAGAAGGTTG
switch fluorescence ratio: 0.9847 ± 0.0061

GCATTAGTAT
switch fluorescence ratio: 0.935 ± 0.044

CTGGGATTTT
switch fluorescence ratio: 0.959 ± 0.0021

GCTTAGAGGA
switch fluorescence ratio: 1 ± 0.03

GCGTCAATTA
switch fluorescence ratio: 1.08 ± 0.03

AATGTACTTT
switch fluorescence ratio: 1.03 ± 0.032

CCGGTAGGGT
switch fluorescence ratio: 1.36 ± 0.61

GTGAATCGGG
switch fluorescence ratio: 0.973 ± 0.032

AGATTTCACT
switch fluorescence ratio: 1.01 ± 0.016

CCAGTGAGGG
switch fluorescence ratio: 0.99 ± 0.026

CGTTTTTGCT
switch fluorescence ratio: 0.961 ± 0.05

TGAGGATTTG
switch fluorescence ratio: 1.02 ± 0.011

CCTGGGGAGT
switch fluorescence ratio: 1.04 ± 0.034

CGTTTGACTT
switch fluorescence ratio: 0.9947 ± 0.0066

GGCTAGAGCT
switch fluorescence ratio: 0.982 ± 0.032

CTTAGATGGA
switch fluorescence ratio: 0.978 ± 0.023

GACCATGGCA
switch fluorescence ratio: 1.01 ± 0.045

GGGATGGGCG
switch fluorescence ratio: 1.03 ± 0.031

TTGCATGGGA
switch fluorescence ratio: 0.992 ± 0.018

TCGGGTTTTA
switch fluorescence ratio: 1.03 ± 0.039

GTAATGATGG
switch fluorescence ratio: 0.994 ± 0.036

CTGTATTACG
switch fluorescence ratio: 0.995 ± 0.027

ACAGCTAAAA
switch fluorescence ratio: 1.02 ± 0.016

ATATAGGGGA
switch fluorescence ratio: 1.02 ± 0.051

AACTTGGCAT
switch fluorescence ratio: 1.02 ± 0.011

GTGGGACTGT
switch fluorescence ratio: 1.015 ± 0.0021

GTTTTAGAGC
switch fluorescence ratio: 1.05 ± 0.025

TGCCCATGGG
switch fluorescence ratio: 0.9956 ± 0.0045

ACCGAGTTCT
switch fluorescence ratio: 0.99 ± 0.057

TATAAATGTT
switch fluorescence ratio: 0.9936 ± 0.0065

GTAATCTTTA
switch fluorescence ratio: 0.982 ± 0.029

ATGGGACGTT
switch fluorescence ratio: 0.983 ± 0.037

TTGATAATCT
switch fluorescence ratio: 1 ± 0.026

TCCTTTAACG
switch fluorescence ratio: 1.031 ± 0.0014

GAATTTAGCA
switch fluorescence ratio: 1.02 ± 0.031

GGGAGATTGG
switch fluorescence ratio: 1.09 ± 0.12

AAGCGGTAGG
switch fluorescence ratio: 1.03 ± 0.015

ACTGGGGATA
switch fluorescence ratio: 0.988 ± 0.047

GGGTGGTGGG
switch fluorescence ratio: 0.987 ± 0.057

TTGATCCAGT
switch fluorescence ratio: 0.997 ± 0.031

TTAGAAGCTT
switch fluorescence ratio: 1.03 ± 0.03

GGTTGAAAAG
switch fluorescence ratio: 0.979 ± 0.015

GGCAGCCGGT
switch fluorescence ratio: 1 ± 0.036

AAATTTTGGC
switch fluorescence ratio: 1.1 ± 0.042

TTCTGTGTGG
switch fluorescence ratio: 0.981 ± 0.011

ATTAGGGGAG
switch fluorescence ratio: 0.972 ± 0.0028

GGTGTGGGGG
switch fluorescence ratio: 1.01 ± 0.04
